The results in this text go back to the supplement of paper PMC10724198.

The test system of this data set is Saccharomyces cerevisiae. The data set can be described thus: protein stability index of tFT-peptide fusion (C-terminal peptide) (PSI (0-1 scale)); higher = more stable (slower turnover). Conditions: temperature: 30 C. The procedure:
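MPS profiling in S. cerevisiae of the yeast C-terminome library: the last 12 aa of each annotated ORF are fused to the C-terminus of a sfGFP-mCherry timer, after a GGGS linker. Cells are FACS-sorted into 8 mCherry/sfGFP bins and deep-sequenced. PSI runs from 0 (unstable) to 1 (stable); wild type and das1Δ backgrounds, two technical replicates each.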

Setting [1] is: genetic background: das1 deletion.

± gives the standard deviation of the averaged measurements.

As for FWEKRWKDGWDE [ERV1 C-terminal 12 aa], the protein stability index was 0.756 ± 0.053 under setting [1] and 0.681 ± 0.031 (genetic background: wild type).

Regarding FYLHGNGSDNLF [YGR153W C-terminal 12 aa], the protein stability index reads like this: under setting [1], 0.7164 ± 0.0016; (genetic background: wild type) 0.711 ± 0.031.

Take GAALMALLGKWA [ZRT2 C-terminal 12 aa]: the protein stability index stood at 0.725 ± 0.021 under setting [1] and 0.6381 ± 0.0041 (genetic background: wild type).

On to GARIGLQGYKSH [YNL184C C-terminal 12 aa], for which the protein stability index came to 0.70081 ± 0.00013 under setting [1] and 0.688 ± 0.015 (genetic background: wild type).

In turn, GDKLISPLKKAF [TKL1 C-terminal 12 aa] gave a protein stability index under setting [1] of 0.675 ± 0.013 and a protein stability index (genetic background: wild type) of 0.711 ± 0.044.

GDYSFNGRVTDF [SDH8 C-terminal 12 aa] yielded a protein stability index under setting [1] of 0.711 ± 0.015 and a protein stability index (genetic background: wild type) of 0.697 ± 0.011.

Consider GEKKQKGQALQF [RPL42A C-terminal 12 aa], for which the protein stability index reads like this: under setting [1], 0.68 ± 0.025; (genetic background: wild type) 0.662 ± 0.051.

GETSSSSAVAEV [AQY1 C-terminal 12 aa]: the protein stability index by setting is: under setting [1], 0.6874 ± 0.0045; (genetic background: wild type) 0.659 ± 0.03.

GHNWLIFTRRRL [CBT1 C-terminal 12 aa] showed a protein stability index under setting [1] of 0.718 ± 0.012 and a protein stability index (genetic background: wild type) of 0.707 ± 0.0083.

In the case of GIMVSPMKTNQR [SWI5 C-terminal 12 aa], the protein stability index is 0.708 ± 0.025 under setting [1] and 0.6993 ± 0.0062 (genetic background: wild type).

In turn, GIVNFWSLEKAA [CIA1 C-terminal 12 aa] registered a protein stability index under setting [1] of 0.716 ± 0.012 and a protein stability index (genetic background: wild type) of 0.633 ± 0.011.

For the sequence GIYSAVIDQTGF [RRP9 C-terminal 12 aa], the protein stability index runs as follows: under setting [1], 0.705 ± 0.011; (genetic background: wild type) 0.6868 ± 0.003.

GKFKSAVFEHAG [SRV2 C-terminal 12 aa] came in with a protein stability index under setting [1] of 0.703 ± 0.026 and a protein stability index (genetic background: wild type) of 0.71 ± 0.019.

As for GKKGQHVGCCVC [YFL066C C-terminal 12 aa], the protein stability index reads like this: under setting [1], 0.722 ± 0.0084; (genetic background: wild type) 0.691 ± 0.046.

As to “GKLLVPLVLYQI [YDR182W-A C-terminal 12 aa]”, the protein stability index is, setting by setting: under setting [1], 0.673 ± 0.019; (genetic background: wild type) 0.535 ± 0.0071.

With GKLPSSLLSYFV [ZUO1 C-terminal 12 aa], the protein stability index was found to be 0.7219 ± 0.0065 under setting [1] and 0.673 ± 0.032 (genetic background: wild type).

With GKRNYLLSVTFV [YCR006C C-terminal 12 aa], the protein stability index was 0.653 ± 0.012 under setting [1] and 0.6385 ± 0.0019 (genetic background: wild type).

Turning to GKWYCDDCKKKL [PHO23 C-terminal 12 aa], the protein stability index under setting [1] is 0.729 ± 0.026 and the protein stability index (genetic background: wild type) is 0.717 ± 0.048.

For the sequence GLSIDTRSAYFV [YPL251W C-terminal 12 aa], the protein stability index worked out at 0.725 ± 0.019 under setting [1] and 0.68 ± 0.026 (genetic background: wild type).

Take GLSPIRYFIPQH [YNL114C C-terminal 12 aa]: the protein stability index reads like this: under setting [1], 0.659 ± 0.017; (genetic background: wild type) 0.6812 ± 0.0052.

As for GNLRDTLIETYS [TIF6 C-terminal 12 aa], the protein stability index is 0.6559 ± 0.0033 under setting [1] and 0.679 ± 0.0088 (genetic background: wild type).

Consider GNNGNNNNTTNL [PET123 C-terminal 12 aa], for which the protein stability index is 0.672 ± 0.008 under setting [1] and 0.669 ± 0.0096 (genetic background: wild type).

As to GNSVNPYNGRIN [SGF73 C-terminal 12 aa], the protein stability index stood at 0.718 ± 0.019 under setting [1] and 0.735 ± 0.0081 (genetic background: wild type).

GNTENGTLKKKH [BSC5 C-terminal 12 aa]: the protein stability index turned out to be 0.685 ± 0.0072 under setting [1] and 0.667 ± 0.037 (genetic background: wild type).

As for “GPCCMYIGCGCG [YBR056C-B C-terminal 12 aa]”, the protein stability index runs as follows: under setting [1], 0.6658 ± 0.0036; (genetic background: wild type) 0.686 ± 0.032.

For the sequence GPCVDALLSLSE [VPS9 C-terminal 12 aa], the protein stability index is 0.74 ± 0.0083 under setting [1] and 0.716 ± 0.048 (genetic background: wild type).

In the case of GPEKAAELAFLA [YML079W C-terminal 12 aa], the protein stability index reads like this: under setting [1], 0.685 ± 0.024; (genetic background: wild type) 0.6497 ± 0.0026.

GQVIDPLKAPFK [UTP14 C-terminal 12 aa] showed a protein stability index under setting [1] of 0.6757 ± 0.0012 and a protein stability index (genetic background: wild type) of 0.691 ± 0.043.

With GRPEQAPECKQS [NAP1 C-terminal 12 aa], the protein stability index was 0.688 ± 0.0078 under setting [1] and 0.648 ± 0.011 (genetic background: wild type).

As for GSEHSDPFSTFY [DBF20 C-terminal 12 aa], the protein stability index runs as follows: under setting [1], 0.748 ± 0.0093; (genetic background: wild type) 0.7245 ± 0.0011.

Turning to GVAKSMGIKVVP [MRPL19 C-terminal 12 aa], the protein stability index reads like this: under setting [1], 0.652 ± 0.0064; (genetic background: wild type) 0.686 ± 0.044.

GVALAGALAFLI [HOR7 C-terminal 12 aa]: the protein stability index runs as follows: under setting [1], 0.68751 ± 0.00021; (genetic background: wild type) 0.66173 ± 0.00053.

On to GVEKYWGILSSD [SCW10 C-terminal 12 aa], for which the protein stability index by setting is: under setting [1], 0.7123 ± 0.0033; (genetic background: wild type) 0.716 ± 0.028.

Take GYLIWSMGNRRR [YFL051C C-terminal 12 aa]: the protein stability index was found to be 0.731 ± 0.018 under setting [1] and 0.71 ± 0.016 (genetic background: wild type).

On to HAAEQILKHFAA [THI4 C-terminal 12 aa], for which the protein stability index was determined as 0.697 ± 0.013 under setting [1] and 0.708 ± 0.015 (genetic background: wild type).

On to HATTVIDGKIKV [YHI9 C-terminal 12 aa], for which the protein stability index is 0.693 ± 0.0079 under setting [1] and 0.688 ± 0.039 (genetic background: wild type).

HDDKPWYKAMLE [GAL2 C-terminal 12 aa]: the protein stability index was 0.7493 ± 0.0048 under setting [1] and 0.733 ± 0.053 (genetic background: wild type).

As to HFANFKRTIEEK [AMD1 C-terminal 12 aa], the protein stability index was determined as 0.729 ± 0.049 under setting [1] and 0.6925 ± 0.0065 (genetic background: wild type).

For the sequence “HFCYIGRITTHT [YDL114W-A C-terminal 12 aa]”, the protein stability index is, setting by setting: under setting [1], 0.681 ± 0.017; (genetic background: wild type) 0.689 ± 0.018.

In the case of “HFLQKFFKLFDN [YMR052C-A C-terminal 12 aa]”, the protein stability index by setting is: under setting [1], 0.734 ± 0.0093; (genetic background: wild type) 0.687 ± 0.015.

HGGTISLCRFGG [SWT21 C-terminal 12 aa] displayed a protein stability index under setting [1] of 0.686 ± 0.023 and a protein stability index (genetic background: wild type) of 0.658 ± 0.015.

In the case of HGNVFHIESICG [YLL047W C-terminal 12 aa], the protein stability index by setting is: under setting [1], 0.655 ± 0.053; (genetic background: wild type) 0.737 ± 0.031.

In the case of HGRESANGISKQ [YLR374C C-terminal 12 aa], the protein stability index under setting [1] stood at 0.679 ± 0.015 and the protein stability index (genetic background: wild type) is 0.65531 ± 0.00026.

For HGTAKALAAAKK [RPL29 C-terminal 12 aa], the protein stability index was determined as 0.7098 ± 0.0054 under setting [1] and 0.6697 ± 0.0058 (genetic background: wild type).

HIRKERTLYIYI [PIH1 C-terminal 12 aa]: the protein stability index runs as follows: under setting [1], 0.60684 ± 0.00034; (genetic background: wild type) 0.351 ± 0.0044.

Take HKKEVVSKGDDY [MAP2 C-terminal 12 aa]: the protein stability index reads like this: under setting [1], 0.6695 ± 0.0046; (genetic background: wild type) 0.653 ± 0.026.

In the case of HLGKFFVKQKIL [ERP1 C-terminal 12 aa], the protein stability index is, setting by setting: under setting [1], 0.696 ± 0.042; (genetic background: wild type) 0.152 ± 0.0043.

Turning to HLSGSTIDTTVV [DSE1 C-terminal 12 aa], the protein stability index is 0.6624 ± 0.0029 under setting [1] and 0.685 ± 0.012 (genetic background: wild type).

HSDSADTHTHKH [MMT2 C-terminal 12 aa]: the protein stability index reads like this: under setting [1], 0.693 ± 0.025; (genetic background: wild type) 0.696 ± 0.029.

In the case of HSITEGSYIYIK [YOR062C C-terminal 12 aa], the protein stability index was 0.687 ± 0.062 under setting [1] and 0.676 ± 0.05 (genetic background: wild type).

As to “HSVWSQSTINND [YML034C-A C-terminal 12 aa]”, the protein stability index runs as follows: under setting [1], 0.725 ± 0.015; (genetic background: wild type) 0.702 ± 0.066.

As to HVCVDVDVIVST [TRM12 C-terminal 12 aa], the protein stability index stood at 0.6505 ± 0.0056 under setting [1] and 0.6574 ± 0.001 (genetic background: wild type).

Regarding HVKDHQPGKPFI [YDR433W C-terminal 12 aa], the protein stability index amounted to 0.689 ± 0.023 under setting [1] and 0.708 ± 0.063 (genetic background: wild type).

Sequence “HYPSSDIRGDIL [YOR161C-C C-terminal 12 aa]” registered a protein stability index under setting [1] of 0.6911 ± 0.0014 and a protein stability index (genetic background: wild type) of 0.69973 ± 0.00023.

Regarding IAFPQRKYAIKA [RPL35A C-terminal 12 aa], the protein stability index was 0.299 ± 0.024 under setting [1] and 0.33 ± 0.01 (genetic background: wild type).

As for IASQNSLGWNEV [MSB2 C-terminal 12 aa], the protein stability index reads like this: under setting [1], 0.69667 ± 0.00047; (genetic background: wild type) 0.693 ± 0.024.

As to ICYTFKHLVSHK [FRT2 C-terminal 12 aa], the protein stability index under setting [1] amounted to 0.691 ± 0.016 and the protein stability index (genetic background: wild type) stood at 0.6574 ± 0.0033.

Turning to IDEMYRGGISMN [AIM32 C-terminal 12 aa], the protein stability index came out at 0.693 ± 0.013 under setting [1] and 0.69 ± 0.024 (genetic background: wild type).

For the sequence IEAPQFYRYWSA [SWI3 C-terminal 12 aa], the protein stability index by setting is: under setting [1], 0.724 ± 0.033; (genetic background: wild type) 0.706 ± 0.011.

In turn, IEEMLEIISGYA [RPC17 C-terminal 12 aa] came in with a protein stability index under setting [1] of 0.5664 ± 0.0013 and a protein stability index (genetic background: wild type) of 0.584 ± 0.008.

On to IEERLVAIAEQD [SCL1 C-terminal 12 aa], for which the protein stability index reads like this: under setting [1], 0.7091 ± 0.0065; (genetic background: wild type) 0.7 ± 0.017.

IELIQNMNKESF [YOR131C C-terminal 12 aa]: the protein stability index stood at 0.696 ± 0.03 under setting [1] and 0.692 ± 0.015 (genetic background: wild type).

As to IEQYLQTYGASA [URA5 C-terminal 12 aa], the protein stability index under setting [1] was 0.708 ± 0.011 and the protein stability index (genetic background: wild type) stood at 0.695 ± 0.014.

For the sequence IEVGADSYAEEF [TUB3 C-terminal 12 aa], the protein stability index amounted to 0.689 ± 0.018 under setting [1] and 0.671 ± 0.014 (genetic background: wild type).

Consider IEVGNGASVLIQ [TRS65 C-terminal 12 aa], for which the protein stability index runs as follows: under setting [1], 0.692 ± 0.01; (genetic background: wild type) 0.691 ± 0.023.

For the sequence IFQEAIDKTVEI [YML082W C-terminal 12 aa], the protein stability index worked out at 0.708 ± 0.0011 under setting [1] and 0.706 ± 0.029 (genetic background: wild type).

Take IGAPASGLRIRV [COP1 C-terminal 12 aa]: the protein stability index reads like this: under setting [1], 0.693 ± 0.0074; (genetic background: wild type) 0.69199 ± 5.7e-06.
